Measured values published in US9650419B2, “Biocompatible protein, biocompatible protein gel and biocompatible conducting protein gel comprising the protein and method for preparing the same” (Research & Business Foundation SUNGKYUNKWAN UNIVERSITY, priority 2014, dated 2017).

Target: T1, trypsin (Bos taurus, UniProt P00760)
T1 construct: gene PRSS1
T1 sequence (P00760 24-246): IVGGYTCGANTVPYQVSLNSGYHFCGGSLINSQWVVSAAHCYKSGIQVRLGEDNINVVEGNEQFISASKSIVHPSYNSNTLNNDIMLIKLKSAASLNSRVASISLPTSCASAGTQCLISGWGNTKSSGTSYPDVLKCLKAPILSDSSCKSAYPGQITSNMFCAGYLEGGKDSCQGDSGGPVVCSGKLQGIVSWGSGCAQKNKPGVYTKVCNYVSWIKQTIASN
Assay: proteolytic susceptibility with trypsin (HPLC, MALDI-TOF)
Type: in vitro ADME
Conditions: 100 μM peptide stock, 200 μM protease stock, TBS buffer pH 7.5, one, seven, thirty days at room temperature
Procedure: In order to confirm whether β-peptide is degraded by a protease, proteolytic susceptibility of β-VhexS was measured with trypsin, chymotrypsin, and subtilisin which cleave protein nonspecifically. Peptide and pretease stock solution was prepared by desolving 100 μM of beta-VhexS and 200 μM of each pretease in TBS buffer at pH 7.5. 10 μL of stock solution. 40 μL of peptide stock solution and 10 μL of protease stock solution were transferred into micro tube and incubated for one, seven, thirty days at room temperature. The reaction was quenched with adding 100 μL of 1% TFA solution. As a control sample, 40 μL of peptide stock solution without protease was also treated with 1% TFA solution.
Degree of peptide degradation was analyzed with high performance liquid chromatography using C3 column for Agilent analysis. […] The HPLC peaks of both standard sample and enzyme treated peptide sample were compared, and the peaks appeared only for enzyme treated sample were analyzed with MALDI-TOF. The results confirmed that β-peptide was not degraded by enzymes.

For “Ac-KVK EVF FVK EVF FVK EVY-NH2 (Ac-KVKEVFFVKEVFFVKEVY-NH2; also: beta-amino acids, places not given here) [β-peptide]”, the “degradation of peptide by protease” value was “not degraded”.
